# Data taken from patent publication US20240091274A1.
# Molecular target: Human CD52 (human) (UniProt P31358)
# Assay: cell-based or functional assay
# Human CD52 (human), sequence (P31358 25-61 limits assumed): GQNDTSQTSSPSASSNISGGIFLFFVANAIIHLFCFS
substance,measurement,value
alemtuzumab (antibody),CDC killing of human HIP iECs (CD52) with ABO-matched allogeneic serum (XCelligence),0.001 µg/ml
same,CDC killing of mouse B6 HIP iECs (CD52) with syngeneic B6 serum (XCelligence),0.0001 µg/mL
